Source: US20250313627A1 (FUSE BIOTHERAPEUTICS, published 2025)

Assays:
[1] = target: T1, recombinant His tagged human ROR1 (human, UniProt Q01973 30-403, limits assumed); assay: BLI (Octet), FUSE protein on the tip, His tagged ROR1 in solution
T1 construct: Analyte in the BLI assay; also called Human ROR1-His; recombinant ROR1
Experimental: As shown in FIGS. 5A-5D, the binding affinities (KD) of TCEs for ROR1 were assessed. We examined the magnitude by which several TCEs and mutants thereof bind to recombinant ROR1. Kinetic binding graphs were generated via Bio-Layer Interferometry (BLI) using an Octet system. For each TCE, the biosensor tips were coated with FUSE proteins at 15 μg/ml and probed with either recombinant His tagged ROR1 at concentrations ranging from 100 pM to 10 μM. […] The binding affinity (KD), on rate (k-on) and off rate (k-dis), are summarized for ROR1 in FIG. 5D.
We further examined the impact of mutating the cysteine residues located in CDR1 and CDR3 of 2A11 VHH and 5A1 VHH.

[2] = target: T1, recombinant His tagged human ROR1; assay: SPR (Biacore 8K), recombinant human ROR1 amine-coupled on a CM5 chip (4400 RU), analyte 200nM, 1:1 binding fit [table below it]
Experimental: (§1) Protein test article binding to recombinant human ROR1 (Acro Biosystems, RO1-H522y) was detected on a BIAcore 8K (Cytiva) biosensor system using an SPR assay. Briefly, a carboxymethylated CM5 sensor chip was activated with 1:1 mixture of 0.4 M N-ethyl-N-(3-dimethylaminopropyl) carbodiimide and 0.1 M′ N-hydroxysuccinimide. Recombinant human ROR1 in 10 mM NaOAc (pH5) was then immobilized on the sensor chip by amine-coupling according to the manufacturer's instructions to yield the stable RU of 4400. Unreacted sites were blocked with 1M ethanolamine/HCl (pH 8). Control flow cells (blank) were activated and blocked in the absence of ROR1. Flow cells were routinely equilibrated with running buffer (PBS, 0.005% surfactant P20). Test article proteins used for assessment of binding to recombinant human ROR1 binding were diluted in HBS-EP running buffer and injected into the sensor chip at different concentrations. […] Data from duplicate assays were modeled for binding equilibrium and dot plots for 200 nM of protein test article was calculated. Association constant (ka), dissociation constant (kd) and binding affinity (KD=kd/ka) were generated from integrated software in the BIAcore 8K system.
(§2) Shown are sensorgrams of surface plasmon resonance (SPR) data generated via Biacore analysis. A summary table of binding affinity (KD), on rate (k-a) and off rate (kd) is shown below FIG. 16B.

[3] = target: T2, human ROR1 (Receptor Tyrosine Kinase-Like Orphan Receptor 1) on the cell surface (human, UniProt Q01973 30-937); assay: flow cytometry on B16-F10 cells engineered to express human ROR1, secondary antibody to the IgG1 Fc
T2 construct: whole, on cells; engineered into B16-F10 (high density) and LS174T (low density) cells; also called B16-F10-ROR1-H; LS174T-ROR1-L
Experimental: As shown in FIG. 15 the apparent binding affinity (EC50-binding) of the ROR1 specific VHH-Fc incorporating either the non humanized VHH clone 5A1 (FUSE179; black circle), the humanized clone 5A1-FA9-HK1 (FUSE559; black square) or the humanized clone 5A1-HK1 (FUSE524; black triangle) was calculated. Shown is a non-linear x-y plot of binding to B16-F10 cell engineered to express human ROR1 relative to the concentration of test article used for staining. A Hen Egg Lysozyme (HEL)-specific antibody was used as the negative isotype control. Binding was measured via flow cytometry using a fluorescently labeled secondary antibody specific for the Fc domain of IgG1. A summary table of EC50s and maximum MFI is shown beneath under the graph.

[4] = target: T2, human ROR1 (Receptor Tyrosine …); assay: flow cytometry, LS174T cells expressing human ROR1 (low density)
Experimental: (§3) As shown in the tables below, mouse B16-F10 melanoma (Tables 9A-9F) or LS174T human colorectal adenocarcinoma (Tables 9G-9H) cells genetically engineered to express human ROR1 at high and low densities, respectively, were stained for flow cytometric analysis with 100 nM of humanized variants of the ROR1 specific VHHs, 5A1 or 2A11 in either a VHH-Fc format or the Ac13 format shown in FIG. 1. Cells were analyzed on a flow cytometer after the primary test article was fluorescently tagged with a goat anti human IgG-Fc specific PE secondary antibody. The positive control used was PE conjugated anti-human ROR1 clone 2A2. Negative controls included a PE labeled mouse IgG Ab, the secondary antibody only, the combination of a Hen Egg Lysozyme (HEL) specific antibody plus goat anti human IgG-Fc specific PE and Fluorescence Minus One (FMO). Other controls included the non-humanized version of 5A1-Fc (FUSE179), 2A11-Fc (FUSE112) and 5A1-Ac13 (FUSE488). Humanized variants were generated using computational design (FUSE489, FUSE497-498, FUSE563, FUSE569-570, and BI-HU9-VHH11-33), a yeast display library in which mutations were inserted into the Vernier zone residues of human framework indicated in GenBank accession number M99660 (FUSE524-525, FUSE589, FUSE597-598, FUSE537, FUSE661-662, BI-HU9-HK and BI-HU9-HK-1), and a second yeast display library in which mutations were inserted into the Vernier zone residues of human framework indicated in GenBank accession number AWH66715 and amino acid position 103 within CDR3 (FUSE559, FUSE590-596, BI-HU9-VH9-1, FUSE654-655 and FUSE661-662. Affinity matured variants of FUSE559 were also generated using computational design (F22158101-21; Table 9H).

[5] = target: T2, human ROR1 (Receptor Tyrosine …); assay: flow cytometry, B16-F10 cells expressing human ROR1 (high density)
Experimental: as §3

[6] = target: T1, recombinant His tagged human ROR1; assay: SPR (Biacore 8K), recombinant human ROR1 amine-coupled on a CM5 chip (4400 RU), analyte 200nM, 1:1 binding fit; column '1:1 binding ka (1/Ms)' [table below it]
Experimental: as §1, §2

[7] = target: T2, human ROR1 (Receptor Tyrosine …); assay: flow cytometry, B16-F10 cells expressing human ROR1 (high density); remark: listed apart in the source
Experimental: as §3

[8] = target: T2, human ROR1 (Receptor Tyrosine …); assay: flow cytometry, LS174T cells expressing human ROR1 (low density); remark: listed apart in the source
Experimental: as §3

[9] = target: T1, recombinant His tagged human ROR1; assay: SPR (Biacore 8K), recombinant human ROR1 amine-coupled on a CM5 chip (4400 RU), analyte 200nM, 1:1 binding fit; column 'kd (1/s)' [table below it]
Experimental: as §1, §2

human CD3 on T cells = target: T3, human CD3 on T cells (human, UniProt P07766 23-207; P09693 23-182; P04234 22-171; P20963 22-164); assay: flow cytometry on CD3+ Jurkat NFAT Lucia cells, secondary antibody to the IgG1 Fc
T3 construct: whole, on cells; also called human CD3 on Jurkat T cells; human CD3 on T cells isolated from human PBMC

[10] = target: T2, human ROR1 (Receptor Tyrosine …); assay: flow cytometry on ROR1+ MDA-MB-231 cells, secondary antibody to the IgG1 Fc; table row 'Binding EC50 (nM)', the graph's axis reads 'Concentration (pM)'
[11] = target: T2, human ROR1 (Receptor Tyrosine …); assay: flow cytometry, B16-F10 cells expressing human ROR1 (high density); remark: listed apart in the source
Experimental: as §3

T2 sequence (Q01973 30-937): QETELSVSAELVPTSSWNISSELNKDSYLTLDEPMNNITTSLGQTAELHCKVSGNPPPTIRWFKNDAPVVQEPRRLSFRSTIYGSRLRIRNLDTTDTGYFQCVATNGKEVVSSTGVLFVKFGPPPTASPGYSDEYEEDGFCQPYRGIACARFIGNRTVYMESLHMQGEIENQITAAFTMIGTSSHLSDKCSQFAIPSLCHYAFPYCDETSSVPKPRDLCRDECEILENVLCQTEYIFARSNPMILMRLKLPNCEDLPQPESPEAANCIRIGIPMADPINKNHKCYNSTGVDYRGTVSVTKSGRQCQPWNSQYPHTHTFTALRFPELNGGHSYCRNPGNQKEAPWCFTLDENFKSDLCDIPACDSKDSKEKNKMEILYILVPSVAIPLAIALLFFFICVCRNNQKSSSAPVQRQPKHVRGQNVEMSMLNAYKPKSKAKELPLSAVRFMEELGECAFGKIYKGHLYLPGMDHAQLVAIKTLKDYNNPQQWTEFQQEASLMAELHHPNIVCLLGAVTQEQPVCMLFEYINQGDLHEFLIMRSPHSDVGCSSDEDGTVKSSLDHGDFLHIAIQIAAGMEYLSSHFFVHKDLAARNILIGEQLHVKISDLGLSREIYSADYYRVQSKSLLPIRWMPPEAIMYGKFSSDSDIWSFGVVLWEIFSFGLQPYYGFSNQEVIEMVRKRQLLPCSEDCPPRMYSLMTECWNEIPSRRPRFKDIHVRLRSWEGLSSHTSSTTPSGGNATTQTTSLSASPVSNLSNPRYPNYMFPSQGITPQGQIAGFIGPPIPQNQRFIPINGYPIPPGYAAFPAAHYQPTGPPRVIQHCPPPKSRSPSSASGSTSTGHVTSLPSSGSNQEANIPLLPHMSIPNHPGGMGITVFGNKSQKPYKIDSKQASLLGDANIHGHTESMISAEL
T1 sequence (Q01973 30-403 limits assumed): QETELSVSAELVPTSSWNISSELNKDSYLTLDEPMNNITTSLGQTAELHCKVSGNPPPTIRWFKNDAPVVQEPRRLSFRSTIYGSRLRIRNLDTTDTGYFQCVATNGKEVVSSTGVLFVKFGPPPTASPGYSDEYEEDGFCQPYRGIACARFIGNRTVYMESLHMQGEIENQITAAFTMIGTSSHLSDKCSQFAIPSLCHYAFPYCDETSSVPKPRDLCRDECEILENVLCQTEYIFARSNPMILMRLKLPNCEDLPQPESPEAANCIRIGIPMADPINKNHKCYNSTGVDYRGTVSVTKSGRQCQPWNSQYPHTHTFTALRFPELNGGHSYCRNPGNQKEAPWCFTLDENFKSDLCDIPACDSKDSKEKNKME
T3 sequence (P07766 23-207, chain 1 of 4): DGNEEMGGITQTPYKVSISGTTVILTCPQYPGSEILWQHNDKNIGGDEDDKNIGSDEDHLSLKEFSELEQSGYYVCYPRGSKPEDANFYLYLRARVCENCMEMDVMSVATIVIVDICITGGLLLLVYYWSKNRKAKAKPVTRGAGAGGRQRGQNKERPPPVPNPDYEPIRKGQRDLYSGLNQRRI
T3 sequence (P09693 23-182, chain 2 of 4): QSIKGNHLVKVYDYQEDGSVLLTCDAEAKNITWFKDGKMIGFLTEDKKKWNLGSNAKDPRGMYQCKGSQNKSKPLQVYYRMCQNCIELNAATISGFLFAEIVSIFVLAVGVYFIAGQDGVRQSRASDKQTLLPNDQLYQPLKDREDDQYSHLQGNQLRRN
T3 sequence (P04234 22-171, chain 3 of 4): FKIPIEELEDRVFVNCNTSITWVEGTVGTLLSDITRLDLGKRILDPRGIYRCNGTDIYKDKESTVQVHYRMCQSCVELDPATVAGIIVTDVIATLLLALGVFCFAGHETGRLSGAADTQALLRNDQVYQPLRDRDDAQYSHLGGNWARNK
T3 sequence (P20963 22-164, chain 4 of 4): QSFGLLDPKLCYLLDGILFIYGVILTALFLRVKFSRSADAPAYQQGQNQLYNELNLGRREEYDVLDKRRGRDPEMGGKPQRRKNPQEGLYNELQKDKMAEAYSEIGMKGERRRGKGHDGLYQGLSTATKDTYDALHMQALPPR

B1: FUSE-454 (5A1 VHH mutant-Fc fusion protein) (Fc fusion)
chain: QVQLQESGGGSVQAGGSLKLSCTASGYTNRLKVMGWFRQAPGKEREEIATISTGTGNTYYADSVKGRFTFSQDKVKNTVYLQMNTLKPDDTGMYYCAADVRPDGTTVHYNSGGQGTQVTVSS
notes: also called mutant 5A1; 5A1-CV; not shown: human Fc
fold lower affinity than the parent (printed FUSE-454, meant FUSE-179) [1]: > 100 fold

B2: FUSE-559 (h5A1-FA9-HK1 Fc) (Fc fusion)
chain: EVQLLESGGGLVQPGGSLRLSCTASGYTNRLKCMGWFRQAPGKEREEIASISTGTGNTYYADSVKGRFTISRDKSRNTLYLQMNTLRAEDTAVYYCAADVRPHGTTCHYNSRGQGTQVTVSS
notes: VHH-Fc format; also called humanized clone 5A1-FA9-HK1; not shown: Fc of the VHH-Fc format
Kd [2]: 2.56 nM | EC50 [3]: 2.31 nM | Max MFI [3]: 7600 MFI | MFI [4]: 24400 | MFI [5]: 199000 | kon [6]: 301000 M⁻¹ s⁻¹ | MFI [7]: 6080 | MFI [8]: 3120 | koff [9]: 0.00077 s⁻¹

B3: FUSE-488 (5A1-Ac13) (bispecific antibody, human IgG1, lambda, L234A L235A)
heavy: EVQLVESGGGLVQPGGSLRLSCAASGFTFSTYAMNWVRQAPGKGLEWVARIRSKYNNYATYYADSVKDRFTISRDDSKNTLYLQMNSLRAEDTAVYYCARHGNFGNSYVSWFAYWGQGTMVTVSSASTKGPSVFPLAPSSKSTSGGTAALGCLVKDYFPEPVTVSWNSGALTSGVHTFPAVLQSSGLYSLSSVVTVPSSSLGTQTYICNVNHKPSNTKVDKKVEPKSCDKTHTCPPCPAPEAAGGPSVFLFPPKPKDTLMISRTPEVTCVVVDVSHEDPEVKFNWYVDGVEVHNAKTKPREEQYNSTYRVVSVLTVLHQDWLNGKEYKCKVSNKALPAPIEKTISKAKGQPREPQVYTLPPSREEMTKNQVSLSCAVKGFYPSDIAVEWESNGQPENNYKTTPPVLDSDGSFFLVSKLTVDKSRWQQGNVFSCSVMHEALHNRFTQKSLSLSPGK
chain: QVQLQESGGGSVQAGGSLKLSCTASGYTNRLKCMGWFRQAPGKEREEIATISTGTGNTYYADSVKGRFTFSQDKVKNTVYLQMNTLKPDDTGMYYCAADVRPDGTTCHYNSGGQGTQVTVSSEPKSSDKTHTCPPCPAPEAAGGPSVFLFPPKPKDTLMISRTPEVTCVVVDVSHEDPEVKFNWYVDGVEVHNAKTKPREEQYNSTYRVVSVLTVLHQDWLNGKEYKCKVSNKALPAPIEKTISKAKGQPREPQVYTLPPSREEMTKNQVSLWCLVKGFYPSDIAVEWESNGQPENNYKTTPPVLDSDGSFFLYSKLTVDKSRWQQGNVFSCSVMHEALHNHYTQKSLSLSPGK
light: QAVVTQEPSLTVSPGGTVTLTCRSSTGAVTTSNYANWVQQKPGQAPRGLIGGTNKRAPGTPARFSGSLLGGKAALTLSGVQPEDEAEYYCALWYSNLWVFGGGTKLTVLGQPKAAPSVTLFPPSSEELQANKATLVCLISDFYPGAVTVAWKADSSPVKAGVETTTPSKQSNNKYAASSYLSLTPEQWKSHRSYSCQVTHEGSTVEKTVAPTECSGGGGSGGGGSGGGGSGGGGSQVQLQESGGGSVQAGGSLKLSCTASGYTNRLKCMGWFRQAPGKEREEIATISTGTGNTYYADSVKGRFTFSQDKVKNTVYLQMNTLKPDDTGMYYCAADVRPDGTTCHYNSGGQGTQVTVSS
notes: also called humanized CD3 clone 1F3.3 x ROR1 VHH 5A1; non humanized 5A1 x 1F3-3 bsAb in format Ac13
EC50 (human CD3 on T cells): 10.6 nM | EC50 [10]: 19.2 nM | MFI [11]: 3910

B4: FUSE-453 (2A11 VHH mutant-Fc fusion protein) (Fc fusion)
chain: QVQLQESGGGSVPAGGSLRLSCAASGSTYSANVMGWFRQAPGKEREEVASMSIRSGRTYYSDSVKGRFTISQDGSKNTLYLQLNSLKAEDTALYYCAAAYGGSRVVYNYRGQGTQVTVSS
notes: also called mutant 2A11; 2A11-CV; not shown: human Fc
fold lower affinity than FUSE-112 [1]: > 100 fold
